According to patent US20050164323:

Columns and labels:
[1] = biological target: T1, MYHNSSQKRH (SEQ ID NO: 36)
T1 chain: MYHNSSQKRH

[2] = biological target: T2, LMRRNSVTPLA (SEQ ID NO: 39)
T2 chain: LMRRNSVTPLA

[3] = biological target: T3, TRSKGTLRYMS (SEQ ID NO: 38)
T3 chain: TRSKGTLRYMS

[4] = biological target: T4, NKRRATLPHPG (SEQ ID NO: 53)
T4 chain: NKRRATLPHPG

[5] = biological target: T5, ITRKRSGEAAV (SEQ ID NO: 40)
T5 chain: ITRKRSGEAAV

[6] = biological target: T6, SQKRPSQRHGS (SEQ ID NO: 42)
T6 chain: SQKRPSQRHGS

[7] = biological target: T7, MRRSKSPADSA (SEQ ID NO: 37)
T7 chain: MRRSKSPADSA

[8] = biological target: T8, … (SEQ ID NO: 54)
T8 chain: SYTRFSLARQV

[9] = biological target: T9, FARKGSLRQKN (SEQ ID NO: 6)
T9 chain: FARKGSLRQKN

[10] = biological target: T10, AKIQASFRGHM (SEQ ID NO: 20)
T10 chain: AKIQASFRGHM

[11] = biological target: T11, EEPVLTLVDEA (SEQ ID NO: 41)
T11 chain: EEPVLTLVDEA

[12] = biological target: T12, KTRKISQSAQT (SEQ ID NO: 52)
T12 chain: KTRKISQSAQT

[13] = biological target: T13, Peptide 4 (RTPKLARQASIELPSM), substrate, lymphocyte-specific protein 1
T13 chain: RTPKLARQASIELPSM

[14] = biological target: T14, LRQLRSPRRTQ (SEQ ID NO: 51)
T14 chain: LRQLRSPRRTQ

[15] = biological target: T15, KIQASFRGHMA (SEQ ID NO: 18)
T15 chain: KIQASFRGHMA

[16] = biological target: T16, SPLRHSFQKQQ (SEQ ID NO: 25)
T16 chain: SPLRHSFQKQQ

[17] = biological target: T17, Peptide 3 (LKRSLSEM), substrate, Serum Response Factor
T17 chain: LKRSLSEM

[18] = biological target: T18, ETKKQSFKQTG (SEQ ID NO: 33)
T18 chain: ETKKQSFKQTG

[19] = biological target: T19, KRRQISIRGIV (SEQ ID NO: 47)
T19 chain: KRRQISIRGIV

[20] = biological target: T20, MYRRSYVFQT (SEQ ID NO: 30)
T20 chain: MYRRSYVFQT

[21] = biological target: T21, RGFLRSASLGR (SEQ ID NO: 32)
T21 chain: RGFLRSASLGR

[22] = biological target: T22, ATFKKTFKHLL (SEQ ID NO: 24)
T22 chain: ATFKKTFKHLL

[23] = biological target: T23, WPWQVSLRTRF (SEQ ID NO: 48)
T23 chain: WPWQVSLRTRF

[24] = biological target: T24, RLRRLTAREAA (SEQ ID NO: 56)
T24 chain: RLRRLTAREAA

B1: PKC-θ kinase domain (PKC-θ KD; amino acid residues 362 to 706), C-terminal hexa-histidine tag, expressed in E. coli (protein)
chain: MGPELNKERPSLQIKLKIEDFILHKMLGKGSFGKVFLAEFKKTNQFFAIKALKKDVVLMDDDVECTMVEKRVLSLAWEHPFLTHMFCTFQTKENLFFVMEYLNGGDLMYHIQSCHKFDLSRATFYAAEIILGLQFLHSKGIVYRDLKLDNILLDKDGHIKIADFGMCKENMLGDAKTNTFCGTPDYIAPEILLGQKYNHSVDWWSFGVLLYEMLIGQSPFHGQDEEELFHSIRMDNPFYPRWLEKEAKDLLVKLFVREPEKRLGVRGDIRQHPLFREINWEELERKEIDPPFRPKVKSPFDCSNFDKEFLNEKPRLSFADRALINSMDQNMFRNFSFMNPGMERLISHHHHHH
shown to be substrates for PKC-θ: phosphorylation of the peptide spot (32P, peptide array) [1] | phosphorylation of the peptide spot (32P, peptide array) [2] | phosphorylation of the peptide spot (32P, peptide array) [3] | phosphorylation of the peptide spot (32P, peptide array) [4] | phosphorylation of the peptide spot (32P, peptide array) [5] | phosphorylation of the peptide spot (32P, peptide array) [6] | phosphorylation of the peptide spot (32P, peptide array) [7] | phosphorylation of the peptide spot (32P, peptide array) [8] | phosphorylation of the peptide spot (32P, peptide array) [9] | phosphorylation of the peptide spot (32P, peptide array) [10] | phosphorylation of the peptide spot (32P, peptide array) [11] | phosphorylation of the peptide spot (32P, peptide array) [12] | phosphorylation of the peptide spot (32P, peptide array) [14] | phosphorylation of the peptide spot (32P, peptide array) [15] | phosphorylation of the peptide spot (32P, peptide array) [16] | phosphorylation of the peptide spot (32P, peptide array) [18] | phosphorylation of the peptide spot (32P, peptide array) [19] | phosphorylation of the peptide spot (32P, peptide array) [20] | phosphorylation of the peptide spot (32P, peptide array) [21] | phosphorylation of the peptide spot (32P, peptide array) [22] | phosphorylation of the peptide spot (32P, peptide array) [23] | phosphorylation of the peptide spot (32P, peptide array) [24]
58000 M⁻¹ s⁻¹: kcat/Km [13]
21 s⁻¹: kcat [17]
14 s⁻¹: kcat [13]
51000 M⁻¹ s⁻¹: kcat/Km [17]
